Key:
[1] = molecular target: T1, FSH ovine dimérique (ovine follicle-stimulating hormone) (ovine, UniProt P01218 25-120; P01227 20-129); test: SPR (Biacore T100), A8 captured on anti-mouse Fc, oFSH injected 1,56 to 50nM
[2] = molecular target: T2, FSH humaine recombinante Gonal-F (recombinant human FSH, Merck Serono) (human, UniProt P01215 25-116; P01225 19-129); test: SPR (Biacore T100), A8 captured on anti-mouse Fc, hFSH injected
T2 construct: Commercial recombinant preparation; also called hFSH Gonal F; hFSH

[3] = molecular target: T2, FSH humaine recombinante Gonal-F …; test: SPR (Biacore T100), A8 captured on anti-mouse Fc, hFSH injected 1,56 to 50nM
[4] = molecular target: T3, eCG commerciale Chronogest (MSD) (equine, UniProt P01220 25-120; P08751 21-169); test: ELISA saturation binding, Kd estimated with GraphPad Prism (one site - specific binding)
T3 construct: Commercial preparation; also called eCG Chronogest

[5] = molecular target: T4, hCG Endo 5000 (purified human chorionic gonadotropin, Schering-Plough) (human, UniProt P01215 25-116; P0DN86 21-165); test: as above
T4 construct: Commercial preparation; also called Gonadotropine Chorionique Endo5000

[6] = molecular target: T5, hCG Chorulon (human chorionic gonadotropin extracted from urine, MSD) (human, UniProt P01215 25-116; P0DN86 21-165); test: as above
T5 construct: Commercial preparation

[7] = molecular target: T1, FSH ovine dimérique (ovine …); test: cell-based or functional assay
[8] = molecular target: T1, FSH ovine dimérique (ovine …); test: SPR (Biacore T100), A8 captured on anti-mouse Fc, oFSH injected

T2 sequence (P01215 25-116 limits assumed, chain 1 of 2): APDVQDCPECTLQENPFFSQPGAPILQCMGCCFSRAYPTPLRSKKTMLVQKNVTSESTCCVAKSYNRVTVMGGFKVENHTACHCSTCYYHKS
T2 sequence (P01225 19-129 limits assumed, chain 2 of 2): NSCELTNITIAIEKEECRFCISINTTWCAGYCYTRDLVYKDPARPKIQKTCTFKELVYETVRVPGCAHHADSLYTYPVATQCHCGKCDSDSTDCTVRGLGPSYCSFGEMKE
T4 sequence (P01215 25-116 limits assumed, chain 1 of 2, other chains not shown): as the sequence (P01215 25-116 limits assumed, chain 1 of 2) above
T5 sequence (P01215 25-116 limits assumed, chain 1 of 2, other chains not shown): as the sequence (P01215 25-116 limits assumed, chain 1 of 2) above
T3 sequence (P01220 25-120 limits assumed, chain 1 of 2): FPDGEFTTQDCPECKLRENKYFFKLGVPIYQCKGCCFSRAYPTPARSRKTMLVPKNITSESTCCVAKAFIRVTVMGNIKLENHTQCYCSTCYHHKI
T3 sequence (P08751 21-169 limits assumed, chain 2 of 2): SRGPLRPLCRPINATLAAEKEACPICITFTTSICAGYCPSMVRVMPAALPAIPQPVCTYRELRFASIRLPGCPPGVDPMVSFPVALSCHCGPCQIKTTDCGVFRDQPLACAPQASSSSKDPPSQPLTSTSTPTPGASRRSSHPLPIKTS

Kd [1]: 6.3 nM
koff [2]: 0.0011 s⁻¹
kon [2]: 240000 M⁻¹ s⁻¹
Kd [3]: 4.7 nM
Kd [5]: ~100 nM
Kd [6]: ~100 nM
sécrétion d'AMPc (cAMP secretion), bovine granulosa cells, oFSH 3ng/ml [7]: 2.1 fold
sécrétion d'AMPc (cAMP secretion), bovine granulosa cells, oFSH 12,5 ng/ml [7]: 1.5 fold
koff [8]: 0.00082 s⁻¹
kon [8]: 130000 M⁻¹ s⁻¹
B1: anticorps monoclonal A8 (monoclonal antibody A8, hybridoma CNCM I-4828) (antibody, V domains shown)
VH: EVQLQESGGGLVQPGGSRKLSCAASGFTFSDFGTHWIRQAPEKGLEWVAYISSGSSTRYYADTVKGRFTISRDDPKNTLFLQMTSLRSEDTAMYYCARSYDGYHVPSFAYWGQGTLVTVSA
VL: DVLMTQTPLSLSVSLGDQASISCRSSQNIVHSNGNTYLEWYLQKPGQSPKLLIYRVSNRFSGIPDRFSGSSSGTDFTLKISRVEAEDLGVYYCFQGSHVPLTFGAGTKLELK
notes: Purified antibody or hybridoma supernatant, depending on the assay; also called AcM A8; ligand A8
Kd [4]: ~100 nM

— patent WO2016038310A1 (dated 2016)
